Laboratory results reported in article doi:10.1101/2024.09.20.614183, “Rubisco packaging and stoichiometric composition of a native β-carboxysome” (bioRxiv, 2024).

Molecular target: T1, Rubisco L8S8 hexadecamer (Form IB ribulose 1,5-bisphosphate carboxylase/oxygenase) of Synechococcus elongatus … (Synechococcus elongatus PCC7942 …, UniProt Q31NB3 1-472; Q31NB2 1-111)
T1 construct: RbcL, Rubisco large subunit, Synechococcus elongatus PCC7942; printed MW 52.4 kDa; RbcS, Rubisco small subunit, Synechococcus elongatus PCC7942; printed MW 13.3 kDa; Native holoenzyme imaged inside isolated β-carboxysomes; never isolated on its own; also called Rubisco complex; Rubisco holoenzyme; source: endogenous, inside β-carboxysomes purified from Syn7942 (sucrose gradient …)
T1 sequence (Q31NB2 whole entry, chain 2 of 2, other chains not shown): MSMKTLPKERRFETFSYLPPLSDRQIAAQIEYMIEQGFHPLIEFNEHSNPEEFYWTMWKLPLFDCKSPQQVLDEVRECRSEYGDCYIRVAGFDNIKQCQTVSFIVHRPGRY
Assay: cryo-EM structure; cryo-electron tomography and subtomogram averaging (emClarity) of Rubisco inside intact β-carboxysomes isolated from Syn7942 grown under low light; 185 carboxysomes; D4 symmetry applied; 3.5 Å
Conditions: partners not purified

stoichiometry N: 4 SSUL domains per Rubisco
B1: CcmM, Rubisco-scaffolding linker protein of the Syn7942 β-carboxysome (natural protein, UniProt Q03513-2 1-324, looked up)
chain: MSAYNGQGRLSSEVITQVRSLLNQGYRIGTEHADKRRFRTSSWQPCAPIQSTNERQVLSELENCLSEHEGEYVRLLGIDTNTRSRVFEALIQRPDGSVPESLGSQPVAVASGGGRQSSYASVSGNLSAEVVNKVRNLLAQGYRIGTEHADKRRFRTSSWQSCAPIQSSNERQVLAELENCLSEHEGEYVRLLGIDTASRSRVFEALIQDPQGPVGSAKAAAAPVSSATPSSHSYTSNGSSSSDVAGQVRGLLAQGYRISAEVADKRRFQTSSWQSLPALSGQSEATVLPALESILQEHKGKYVRLIGIDPAARRRVAELLIQKP
notes: CcmM, Synechococcus elongatus PCC7942; Mixture of CcmM58 and CcmM35 in the native carboxysome; only an SSUL module is resolved; also called CcmM SSUL; CcmM58; source: endogenous, inside β-carboxysomes purified from Syn7942 (sucrose gradient ultracentrifugation)
